Consider five molecules from article PMC1807962 (Nucleic Acids Research, 2007).

Where “and” joins values, the source holds several entries; their conditions need not be identical. Equal entries are not always repeated.

Assay in all cases: SEC
Data set [1] concerns the target Sso MCM ▵A/HTH (lacking both the A domain and the HTH domain) (Sulfolobus solfataricus).
Data set [2] has as its target Sso MCM C-half (C-terminal half, AAA+ and HTH domains) (Sulfolobus solfataricus).
Data set [3] has as its target Sso MCM ▵A (lacking the N-terminal A domain) (Sulfolobus solfataricus).
Data set [4] deals with Sso MCM AAA+ core domain (Sulfolobus solfataricus).
The data set “SEC” concerns the molecule itself.

In turn, “Sso MCM ▵A/HTH (lacking both the A domain and the HTH domain) (domain or fragment)” showed a stoichiometry N in data set [1] of 6.

Regarding “Sso MCM C-half (C-terminal half, AAA+ and HTH domains) (domain or fragment)”, the stoichiometry N in data set [2] came to 2.

As for “Sso MCM ▵A (lacking the N-terminal A domain) (domain or fragment)”, the stoichiometry N in data set [3] stood at 6.

“Sso MCM AAA+ core domain (domain or fragment)” came in with a stoichiometry N in data set [4] of 2.

B1: Sulfolobus solfataricus MCM, full-length, wild-type (natural protein)
chain: MEIPSKQIDYRDVFIEFLTTFKGNNNQNKYIERINELVAYRKKSLIIEFSDVLSFNENLAYEIINNTKIILPILEGALYDHILQLDPTYQRDIEKVHVRIVGIPRVIELRKIRSTDIGKLITIDGILVKVTPVKERIYKATYKHIHPDCMQEFEWPEDEEMPEVLEMPTICPKCGKPGQFRLIPEKTKLIDWQKAVIQERPEEVPSGQLPRQLEIILEDDLVDSARPGDRVKVTGILDIKQDSPVKRGSRAVFDIYMKVSSIEVSQKVLDEVIISEEDEKKIKDLAKDPWIRDRIISSIAPSIYGHWELKEALALALFGGVPKVLEDTRIRGDIHILIIGDPGTAKSQMLQFISRVAPRAVYTTGKGSTAAGLTAAVVREKGTGEYYLEAGALVLADGGIAVIDEIDKMRDEDRVAIHEAMEQQTVSIAKAGIVAKLNARAAVIAAGNPKFGRYISERPVSDNINLPPTILSRFDLIFILKDQPGEQDRELANYILDVHSGKSTKNIIDIDTLRKYIAYARKYVTPKITSEAKNLITDFFVEMRKKSSETPDSPILITPRQLEALIRISEAYAKMALKAEVTREDAERAINIMRLFLESVGVDMESGKIDIDTIMTGKPKSAREKMMKIIEIIDSLAVSSECAKVKDILKEAQQVGIEKSNIEKLLTDMRKSGIIYEAKPECYKKV
Regarding B1, the “stoichiometry N” value in “SEC” was ≤ 12 and 6.

Broadly, the stoichiometry N is a count of units in the complex or per binding partner.
